The text below walks through data of IntAct's records for PubMed 19644450.

In assay [1] the target is SPAG9, O60271-2.
For assay [2], the target named is SPAG9, O60271-2. This is another data set of the same source.

Sequence of SPAG9, O60271-2 (O60271 other isoform, or with tags, fused parts or gaps): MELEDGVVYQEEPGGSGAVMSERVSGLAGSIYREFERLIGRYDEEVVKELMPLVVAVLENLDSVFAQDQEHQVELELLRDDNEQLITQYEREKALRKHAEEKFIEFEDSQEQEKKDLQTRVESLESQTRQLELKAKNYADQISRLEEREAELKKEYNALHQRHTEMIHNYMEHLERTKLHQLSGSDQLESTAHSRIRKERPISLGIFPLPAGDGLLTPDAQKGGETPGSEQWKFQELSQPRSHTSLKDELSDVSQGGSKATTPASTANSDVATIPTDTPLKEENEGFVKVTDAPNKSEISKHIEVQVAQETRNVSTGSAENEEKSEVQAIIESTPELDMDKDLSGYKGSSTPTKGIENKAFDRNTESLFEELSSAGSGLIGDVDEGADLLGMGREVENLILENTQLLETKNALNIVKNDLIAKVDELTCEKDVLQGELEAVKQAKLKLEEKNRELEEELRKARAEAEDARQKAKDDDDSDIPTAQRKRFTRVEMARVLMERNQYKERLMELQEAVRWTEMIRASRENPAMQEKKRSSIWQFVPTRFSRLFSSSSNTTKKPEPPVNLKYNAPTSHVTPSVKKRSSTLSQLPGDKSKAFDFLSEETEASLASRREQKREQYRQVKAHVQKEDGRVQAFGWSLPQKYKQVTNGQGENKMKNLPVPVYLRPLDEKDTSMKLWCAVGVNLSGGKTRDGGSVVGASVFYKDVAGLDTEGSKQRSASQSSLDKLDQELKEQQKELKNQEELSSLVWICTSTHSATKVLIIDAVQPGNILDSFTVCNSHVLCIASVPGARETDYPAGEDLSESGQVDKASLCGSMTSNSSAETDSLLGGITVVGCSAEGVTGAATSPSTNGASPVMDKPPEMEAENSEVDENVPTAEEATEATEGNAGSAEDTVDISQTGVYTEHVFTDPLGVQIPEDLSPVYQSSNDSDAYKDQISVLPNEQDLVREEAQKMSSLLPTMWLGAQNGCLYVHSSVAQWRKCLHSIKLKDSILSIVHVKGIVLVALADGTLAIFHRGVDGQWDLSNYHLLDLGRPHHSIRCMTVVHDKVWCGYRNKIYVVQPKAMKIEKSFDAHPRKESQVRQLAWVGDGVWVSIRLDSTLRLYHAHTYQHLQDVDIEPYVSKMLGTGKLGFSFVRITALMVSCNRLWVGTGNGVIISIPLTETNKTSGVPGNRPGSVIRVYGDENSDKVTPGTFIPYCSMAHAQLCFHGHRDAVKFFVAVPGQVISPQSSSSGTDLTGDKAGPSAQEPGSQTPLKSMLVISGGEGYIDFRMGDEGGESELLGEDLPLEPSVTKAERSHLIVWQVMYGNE
Sequence of ADP-ribosylation factor 1 (Homo sapiens), P84077 S62K (P84077 whole entry S62K): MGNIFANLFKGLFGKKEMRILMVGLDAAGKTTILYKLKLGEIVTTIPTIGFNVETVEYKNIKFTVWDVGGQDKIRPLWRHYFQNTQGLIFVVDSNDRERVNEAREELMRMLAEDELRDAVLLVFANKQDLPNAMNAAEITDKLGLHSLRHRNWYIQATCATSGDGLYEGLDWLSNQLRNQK
Sequence of ADP-ribosylation factor 1 (Homo sapiens), P84077 E57T (P84077 whole entry E57T): as the sequence (P84077 whole entry S62K) above, with E57T, K62S counted along it

Regarding “ADP-ribosylation factor 1 (Homo sapiens), P84077 E57T”, in the assay with SPAG9, O60271-2 [1], the “effect of a mutation on the interaction” value was “increasing interaction”. Same read-out and setting: then “ADP-ribosylation factor 1 (Homo sapiens), P84077 Q83T”, with “increasing interaction”.

As to “ADP-ribosylation factor 1 (Homo sapiens), P84077 S62K”, the “effect of a mutation on the interaction” value in the assay with SPAG9, O60271-2 [2] is given as “increasing interaction”. Still for that read-out and setting: in the case of “ADP-ribosylation factor 1 (Homo sapiens), P84077 T64N” it was “increasing interaction”.
